This passage reports Kd results from paper PMC7313415 (Journal of immunology (Baltimore, Md. : 1950), 2020).

Test in all cases: SPR
Background: Surface plasmon resonance follows binding to a sensor surface in real time, without labels.

Experiment [1] addresses Biotin-labeled SUMO-fusion mouse TRIM14 (residues 247-440) (mouse) (UniProt Q8BVW3).
Experiment [2] has as its target human cGAS (residues 157-522) (human, UniProt Q8N884 157-522).
In the next experiment the target is T1, full-length human TBK1 (human, UniProt Q9UHD2 1-729).
T1 sequence (looked up): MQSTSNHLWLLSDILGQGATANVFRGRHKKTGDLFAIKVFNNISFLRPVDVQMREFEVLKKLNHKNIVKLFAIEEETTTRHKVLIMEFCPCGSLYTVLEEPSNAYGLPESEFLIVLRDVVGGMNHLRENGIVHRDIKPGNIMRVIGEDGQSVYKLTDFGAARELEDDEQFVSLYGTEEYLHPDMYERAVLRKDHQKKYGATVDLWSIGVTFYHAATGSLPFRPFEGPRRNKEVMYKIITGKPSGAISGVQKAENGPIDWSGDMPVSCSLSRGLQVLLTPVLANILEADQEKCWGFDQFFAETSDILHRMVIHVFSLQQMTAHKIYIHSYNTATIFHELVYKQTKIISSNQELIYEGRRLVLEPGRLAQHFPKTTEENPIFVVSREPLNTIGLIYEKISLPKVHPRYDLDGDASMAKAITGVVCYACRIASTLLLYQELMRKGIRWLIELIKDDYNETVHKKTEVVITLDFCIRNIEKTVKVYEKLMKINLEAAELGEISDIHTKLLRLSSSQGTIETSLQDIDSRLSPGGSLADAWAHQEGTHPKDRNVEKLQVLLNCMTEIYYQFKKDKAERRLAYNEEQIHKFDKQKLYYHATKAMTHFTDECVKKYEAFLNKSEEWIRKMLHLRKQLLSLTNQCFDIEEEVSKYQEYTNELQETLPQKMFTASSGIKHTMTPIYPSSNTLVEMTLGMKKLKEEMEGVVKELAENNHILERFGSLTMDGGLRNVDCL

Sequence of human cGAS (residues 157-522) (Q8N884 157-522): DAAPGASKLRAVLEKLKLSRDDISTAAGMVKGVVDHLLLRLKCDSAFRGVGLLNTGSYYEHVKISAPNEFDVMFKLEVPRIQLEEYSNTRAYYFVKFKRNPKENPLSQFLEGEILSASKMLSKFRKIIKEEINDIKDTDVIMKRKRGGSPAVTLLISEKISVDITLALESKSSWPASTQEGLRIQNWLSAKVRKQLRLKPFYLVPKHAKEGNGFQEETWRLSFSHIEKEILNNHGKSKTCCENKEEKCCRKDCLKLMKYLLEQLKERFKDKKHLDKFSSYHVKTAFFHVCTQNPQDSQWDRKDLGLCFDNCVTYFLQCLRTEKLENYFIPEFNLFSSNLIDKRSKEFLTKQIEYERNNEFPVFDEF

As a reminder, the Kd is the concentration at which binding is half-saturated. A higher Kd goes with lower affinity. The molecule “mouse TBK1 (residues 1 to 657) (from UniProt Q9WUN2 1-657) (domain or fragment)” returned a Kd in experiment [1] of 24.3 µM.

“human TBK1 (residues 1 to 657) (from UniProt Q9UHD2 1-657) (domain or fragment)” had a Kd in experiment [1] of 42.6 µM.

B1: Biotin-labeled SUMO-fusion mouse TRIM14 (residues 247-440) (domain or fragment, UniProt Q8BVW3 247-440, looked up)
chain: ALLKTSPSPERALFLKYARTPTLDPDTMHARLRLSPDGLTVRCSLLGRLGPRPAPRFDALRQVLGRDGFAAGRHYWEVDVQEAGVGWWVGAAYPSLRRRGASAAARLGCNRESWCVKRYDLEYWAFHDGQRSRLRPRRDPHRLGVFLDYEAGILAFYDVAGGMSHLHTFHAAFQEPLYPALRLWEGPISIPRLP
modifications: biotin (Avi tag, labelled by BirA)
With B1, the results for the Kd (in experiment [2]; in the experiment with full-length human TBK1) were 25.8 µM and 11 µM, respectively.
